Test: soluble on expression in E. coli; label from the status in PepcDB or PDB records

Sequence | soluble on expression in E. coli
MMVEVRFFGPIKEENFFIKANDLKELRAILQEKEGLKEWLGVCAIALNDHLIDNLNTPLKDGDVISLLPPVCGG | not soluble
MMVMTDKFNYEELGLKVGLEIHRQLDTKKLFSPVPSELSDKVEFTFQRRLRPTMSELGEIDPAALEEFKKGRVYVYEGNYELTDLVYMDEEPPRGPDREALEVALQIAYLLNAKPVDEVYYMRKIVIDGSNVSGFQRTAIIATDGKVETPWGAVGIPTICLEEDAARIIERKDKEVIYRLDRLGIPLIEISTTPDIHHPEQAKVVAKFIGDALRATKKVKRGLGTIRQDLNVSIKGGARIEIKGVQELDMIPIIIEREVERQLNLLKIRDELRKRGVKPKDIKEEFYDVTDIFENTKSKIIARVIKKGGKVLAIKLPKFRGLIGREIQPGRRLGTEFADRAKKYVPGIFHIDELPNYGISQEEVNKVIERLNLSEEDAFVLVAAEEEKAKNALREVIKRAREAIEGVPEETRRALPDGNTEYMRPLPGKARMYPETDIPPLRIPDDLKKKIKENLPELPQAKVERYVKEYKLDRSLAQTLVDDERDELFEELVSMGVKPSLAASILVVVLKGLRKEVPIENVTDEHIREAFQLYLEGKIAKEAFEEIFKELARNPSKSAREVAEEKGLTLLSEEEVTRIIEEVIQQNIEVVKAKGMGAMGLIMGRVMAKVRGKADGKLVSQIVRRKLQEISGG | soluble
MNAAIHPRPAAERAPSYYAATLNEETDYPTLLGAVTVDIAIIGGGFTGVATAVELAERGYKVALVETHRIGWGASGRNGGQVTGSLSGDAAMHKQMRQWLGAEVEDFIWHLRWRGHEIIRQRVEKYGIACDLRHGHLHAAMKASHMGELQASYEEAVRRGMGDQVVLLDKAGVQAHLETELYCGALKNTRNMHLHPLNLCIGEARAAAGLGALIFEHSEVLDIVHGPRPAVITREGRIEAQQILLAGDVYHKLERRQLKGMIFPAMGGIVTTRPLGELAREINPQGLAVYDCRFVLDYYRPTADGRLLFGGGANYSGRDSRDITAELRPCIERTFPRLKGVEIEFQWSCAMGIVMNRIPQLGKLSDNVWYCQGYSGHGVATSHIMGEIMAKAMSGSLEQFDTFARCKHLRVPLGDLFGNPMLAAGMWYYQLMEKLRLEHHHHHH | not soluble
MNADTADEEITKLLEFLIEQTKDAFEPMRALAVFESFGQLEEDPLDRKTYHYRFHQKIAPNMDSWNNYSIESRIRLMFALAGRVRDNFLESIQSQGTVELDEKNRICEYISNDGTLTLKGDHSDSARWARRITSTTNPTKSAAFAEKFMNFLVEKTKNVVEPVSVGGIYEEFSQIDGFGLSPAAYRTRFHINIVPEINEWNSYSIEERIRLLMALGALVPEDFLERIEAEGTVDLDEKGRILKYSSNDGNLNLDKRNIATANRRNSTAAHRKRSLDRDSESGSAKNARAVKSEPKSKPQSDLHYSSESDTDDVEFVESLPGKPKLEPIDYDYDQYFNRDVSYNNYDQEEVENRNVRLSIASSMPSLESNVIKLNDFLKEVRKFLCFLEISELDELKHQIKESVVQTAGANENLEISDLCTLLDAFFFSINQKTRSTIPNDSTMPVNVFLIKFKCFLLGMESPEFLDLQEKVQRKLDESDITEKILQLSDIQHAVQYLFFSVSH | not soluble
MNAKAVKEVLKAHVGRAYAPYSGFPVVALVEAEGEVFLGVNVENASFPLSQCAERNAVAAMVLAGKRRLERVHVYSPKGPIPPCGGCRQVLMEFGGPEVEVVLHGPEEEVRTTLGALLPLAFRL | soluble
MNAQEFKEKKTETTGAHHAQRLGIAAGMTVQEVGWDEDCDSTISEAIEDILGEELLDEETDEACDVVLLWWRSDDGDLVDGLVDSIRPLADNGRIWLLTPGAGKQGALDPGEISESAQLAGLVQTKAERLGAWQGSCLVQRGNKQ | not soluble
MNCRGHETRQRIVRDFEVQPKAHIKLLANQQKHSDAGATIEDEYYVFIAESKIDGKKEVIQCCMGAARDFLELINHKGLPLFNPLVGDSHVNNRQEYDNTGSGNL | not soluble
MNDDRATAFNALKNKTVCVQGDGNSRQFYHALVEILSNHSSAIPVNKNGNDFCNAPFAQCPQDTYYFDLVDKSDNLSVKLYWRWAPEFSDIECPMKVPSGFTPGSNYSFPSGPDTLSCDINIMDAGQWELFEKDANVTTAGYSQGVSNLSKCFSSDKSAKYFWIAAYALTPEQLQIHLPYNNTDVERINEVATQGLNSTACVLNGYDVTVNAFNDTKEATTDGIHYLGWINEQVVQLFFNAVTNSSAPTVPSSNVSVTSPNVQLGQVPNLNPSTTNSFLPVQTIVTVPSSSATSASSGLNFGGSSQGGGSGIPQL | not soluble
MNDEEKPCIENILSAAEELEKLGYEPVIIADASLRHEIDDKEQFRKLLEEGKFQQVPSGTSADHFILKMAEEEDAKILSNDVFRDYKDEFQDINSRRIPYTFREDKILIGTSGKPKKVKNILQKICNEALEHHHHHH | not soluble
MNDFNTAFANIDEKAIPNDEKGAANGVATLNSSGKLAQMPSASDVGALPITGGEMQGALKLKANQYGGSGPADEKYALDCQNSNIVNVNRILTADPAGSASEGWGFQREDDPDAYDVIWASNGTLYFTPGFKYNTPPYPANQRVLATTDNIALTNYLRQEYNKLKESEGTPTLNDIINGFGFCYNDSSNGAGLDGTYLTVSGMLDNKYRLQLLGQYNGSNWLAYRTRNGDEQSWNPWHKVLTDNINAAISARHQYTSSSYPQIYGNGILQLGGDSRNEYGVVLRSNGTDEANAFRPSVNAGTTGHLYLGVANQKWRAVFAQNGTIQTSDRNAKHDITDLDPEKITAFIMGLKPSSYVFNDADSGRTHWGLISQDIEELFPQLGMTSMDFAGFIKSPKTEDYYEDVPETVTDEETGEEKTVTRKELKTRTVEGEYIYSLRYDEFLEHHHHHH | soluble
MNDFSLELPVRTNKPRETGQSILIDNGYPLQFFKDAIAGASDYIDFVKFGWGTSLLTKDLEEKISTLKEHDITFFFGGTLFEKYVSQKKVNEFHRYCTYFGCEYIEISNGTLPMTNKEKAAYIADFSDEFLVLSEVGSKDAELASRQSSEEWLEYIVEDMEAGAEKVITEARESGTGGICSSSGDVRFQIVDDIISSDIDINRLIFEAPNKTLQQGFIQKIGPNVNLANIPFHDAIALETLRLGLRSDTFFL | soluble
MNDSAPRRVRVRAPELIGKGGWLNTGDKQYTLADLRGRIVVLDFWTFCCINCLHVLDELRELEEKHRDTVVIIGVHSPKFVHEAEHQAVVDAVERYGVEHPVLDDPELATWKQYAVRAWPTLVVIDPEGYVVAQHAGEGHAHAIAALVAELEAEHEAKGTLRRGDGPYVAPEPEPTVLRFPGKALLLPSGNFLVSDTTRHQLVELAADGESVVRRIGSGIRGFADGPADAASFSEPQGMTLLDEDVVVVADTVNHALRRLDLATGEVTTLAGTGRQWWQGSPASGPAREVDLSSPWDVAVFGGRVWIAMAGGAPAVDVRPGGGDGRGRGGHDERGAGRRTGLEHHHHHH | soluble
MNEFEDLLNSVSQVETGDVVSAEVLTVDATQANVAISGTGVEGVLTLRELTNDRDADINDFVKVGEVLDVLVLRQVVGKDTDTVTYLVSKKRLEARKAWDKLVGREEEVVTVKGTRAVKGGLSVEFEGVRGFIPASMLDTRFVRNAERFVGQEFDTKIKEVNAKENRFILSRREVVEAATAAARAEVFGKLAVGDVVTGKVARITSFGAFVDLGGVDGLVHLTELSHERNVSPKSVVTVGEEIEVKILDLNEEEGRVSLSLKATVPGPWDGVEQKLAKGDVVEGTVKRLTDFGAFVEVLPGIDGLVHVSQISHKRIENPKEALKVGQEVQVKVLEVNADAERVSLSIKALEERPAQEEGQKEEKRAARPRRPRRQEKRDFELPETQTGFSMADLFGDIELLEHHHHHH | soluble
MNEKKERIIKTSIRLFAKKGFAATTIQEIASECGISKGAFYLHFKSKEALLLSACEYYIGMSMNKMKNIEEDLAGKPPKEVLKKQIGAQFEDFRDHKDFIVLLLTENIIPENQEIKQYFYKVTMETDKLYRNALLVSYGEGIERYVADLSIMARGIVHSYMNVMVFNGELNIDAEEISAFIIERLDDLVQGLSRSALNPIVSKDIFNPMPAGKDQLLEDIQKVKENSTLPEDITVSLDVIEEELTQDKPRKPIIKGMLSNLAGTNDKEVERLRALILSLSQFDHKKSSL | not soluble

Reference: the DeepSol protein solubility set
